For one molecule, IC50, Kd and EC50 results are on record in patent US20240376225A1 (CHILDREN S MEDICAL CENTER, published 2024).

The IC50 is the concentration at which inhibition is half-maximal. Low values mean greater potency in that assay, high ones weaker potency in that assay. As usually defined, the Kd is the free concentration of one partner at which half of the binding sites on the other are occupied at equilibrium, for simple one-to-one binding. Lower therefore signals tighter binding. In general, EC50 refers to the concentration that produces a half-maximal response. The low end stands for higher potency in that assay, the high end for lower potency in that assay.

The target of assay [1] is T1, cyno CD21 on CHO cells (cynomolgus monkey, UniProt A0A2K5URG6 21-1034).
T1 construct: whole, on cells; also called CHO-cyno CD21 cells; CHO-cynoCD21
T1 sequence: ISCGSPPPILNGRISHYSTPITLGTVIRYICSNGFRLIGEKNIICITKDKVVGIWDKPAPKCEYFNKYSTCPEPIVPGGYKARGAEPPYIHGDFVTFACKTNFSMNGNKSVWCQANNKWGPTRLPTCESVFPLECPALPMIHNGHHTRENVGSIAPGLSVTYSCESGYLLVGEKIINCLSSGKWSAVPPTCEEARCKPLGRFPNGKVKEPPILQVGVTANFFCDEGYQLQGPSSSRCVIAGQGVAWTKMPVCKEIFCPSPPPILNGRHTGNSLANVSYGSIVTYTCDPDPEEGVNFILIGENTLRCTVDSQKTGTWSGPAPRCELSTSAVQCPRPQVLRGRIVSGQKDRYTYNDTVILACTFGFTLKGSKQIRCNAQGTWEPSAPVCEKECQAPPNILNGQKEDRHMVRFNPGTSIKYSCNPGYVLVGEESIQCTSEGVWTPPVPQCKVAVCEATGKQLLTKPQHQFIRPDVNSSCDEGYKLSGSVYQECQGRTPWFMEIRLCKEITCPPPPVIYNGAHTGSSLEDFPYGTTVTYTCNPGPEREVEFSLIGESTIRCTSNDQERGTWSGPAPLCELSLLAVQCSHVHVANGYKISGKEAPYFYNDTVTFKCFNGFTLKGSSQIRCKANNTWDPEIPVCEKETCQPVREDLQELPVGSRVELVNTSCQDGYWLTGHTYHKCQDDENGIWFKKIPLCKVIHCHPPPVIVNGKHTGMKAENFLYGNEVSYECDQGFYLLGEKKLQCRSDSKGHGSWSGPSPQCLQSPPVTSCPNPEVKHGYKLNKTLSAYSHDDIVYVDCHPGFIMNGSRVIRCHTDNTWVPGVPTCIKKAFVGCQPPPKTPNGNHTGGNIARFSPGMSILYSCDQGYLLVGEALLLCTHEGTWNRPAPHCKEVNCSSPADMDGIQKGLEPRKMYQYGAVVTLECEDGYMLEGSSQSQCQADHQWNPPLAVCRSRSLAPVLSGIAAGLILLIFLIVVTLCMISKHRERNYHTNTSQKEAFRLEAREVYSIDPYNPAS
The assay is described as follows: flow cytometry, competition with biotinylated human C3d on CHO-cynoCD21 cells. On the procedure: To measure neutralization of C3d binding to cell-surface CD21 by flow cytometry, human Raji cells and CHO-cyno CD21 cells were used. Cells were dissociated with cell dissociation buffer (Sigma) and blocked on ice with PBS+3% bovine serum albumin (BSA)+human Fc blocker. In a 96-well plate, […] were incubated for 0.5 hr on ice with 3-fold serially diluted Ab15 (starting from 100 nM), then with 4.5 ug/ml biotinylated human C3d. SA-BV451 conjugate (BD Bioscience, cat. #563529) was then added at 0.5 ug/ml for 1 hr on ice. Cells were washed again with cold PBS, resuspended in PBS and analyzed for human C3d binding on a BD Fortessa™.
(In general: In flow cytometry, cells or beads pass a laser one at a time.)

A further assay concerns the target T2, human CD21 protein (human, UniProt P20023 21-971, limits assumed).
T2 construct: the Biacore set-up is not described; also called huCD21; CR2
T2 sequence (looked up): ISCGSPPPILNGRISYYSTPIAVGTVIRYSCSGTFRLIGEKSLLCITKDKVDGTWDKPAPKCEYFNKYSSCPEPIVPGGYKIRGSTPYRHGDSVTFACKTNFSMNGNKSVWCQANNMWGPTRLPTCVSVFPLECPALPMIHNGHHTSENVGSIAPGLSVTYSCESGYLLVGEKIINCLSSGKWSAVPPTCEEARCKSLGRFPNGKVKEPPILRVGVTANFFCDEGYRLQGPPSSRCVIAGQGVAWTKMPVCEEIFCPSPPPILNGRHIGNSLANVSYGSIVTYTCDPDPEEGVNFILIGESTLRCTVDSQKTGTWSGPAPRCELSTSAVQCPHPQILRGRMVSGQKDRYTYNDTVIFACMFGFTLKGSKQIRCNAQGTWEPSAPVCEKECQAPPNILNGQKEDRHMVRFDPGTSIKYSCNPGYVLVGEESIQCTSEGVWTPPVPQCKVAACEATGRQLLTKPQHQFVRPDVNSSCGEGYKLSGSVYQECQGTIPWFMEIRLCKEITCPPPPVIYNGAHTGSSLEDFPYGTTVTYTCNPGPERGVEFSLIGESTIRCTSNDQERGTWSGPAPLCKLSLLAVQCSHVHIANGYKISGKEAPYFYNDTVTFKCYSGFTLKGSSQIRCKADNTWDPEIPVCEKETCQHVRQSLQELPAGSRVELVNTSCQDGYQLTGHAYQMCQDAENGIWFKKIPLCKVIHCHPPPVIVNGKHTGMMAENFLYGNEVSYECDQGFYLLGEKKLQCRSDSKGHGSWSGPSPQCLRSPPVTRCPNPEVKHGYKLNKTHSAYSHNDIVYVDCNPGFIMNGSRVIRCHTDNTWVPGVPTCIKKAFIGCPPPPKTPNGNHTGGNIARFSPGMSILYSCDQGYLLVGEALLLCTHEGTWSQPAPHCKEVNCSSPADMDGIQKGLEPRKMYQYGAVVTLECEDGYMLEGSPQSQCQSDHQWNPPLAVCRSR
The assay is described as follows: SPR (Biacore).

In assay [2] the target is T1, cyno CD21 on CHO cells. The assay is described as follows: flow cytometry, Ab15 titrated on CHO cells overexpressing cyno CD21, anti-human IgG-PE, Geo MFI. On the procedure:
Ab15 binding to cell-surface human and cyno CD21 was determined using human Raji B cells (ATCC, Manassas, VA) and CHO cells over expressing cyno CD21. Cells expressing cyno CD21 were generated by transfecting CHO cells with a mammalian expression construct encoding full-length cyno CD21. Stable cell clones were selected on hygromycin-B, and their expression of cyno CD21 confirmed by flow cytometry.
For the Ab15 binding experiment, cells were dissociated with cell dissociation buffer (Sigma) and blocked on ice with PBS+3% bovine serum (BS)+human Fc blocker. Cells were stained on ice for 1 hr with 3-fold serially diluted Ab15 (starting from 50 nM), then washed with cold PBS. Secondary antibody (anti-human IgG-PE, 1:500 dilution, Invitrogen, cat. #H10104) was added on ice for 1 hr. Cells were washed with and resuspended in PBS, and analyzed for Ab15 binding on a BD Fortessa instrument.

B1: Ab15 (antibody, human IgG1, kappa, V domains shown)
VH: QVQLVQSGAEVKKPGSSVKVSCKASGGTFSSYAISWVRQAPGQGLEWMGRIIPILGIANYAQKFQGRVTITADKSTSTAYMELSSLRSEDTAVYYCAREDDSSGYYQDWGQGTLVTVSS
VL: EIVMTQSPATLSLSPGESATLSCRAGQSINSHLAWYQQKPGQSPSLLIYDASTRATGVPARFSGSGFGTEFTLTISSLQSEDFAVYFCQQYEYWYTFGQGTKLEIKR
notes: Tb-labeled in the HTRF assay; also called 36C01; SC38-36C01 (IgG1 version)
Molecule B1 had an IC50 in the assay with cyno CD21 on CHO cells [1] of 0.24 nM. Moreover, the Kd with human CD21 protein was determined as 15.6 nM. This molecule gave an EC50 in the assay with cyno CD21 on CHO cells [2] of 0.05 nM.
